Measurements as given in article PMC3347801.

Biological target: human CD81 large extracellular loop fused to glutathione S-transferase (UniProt P60033)
Assay: CD81 binding assay (immobilized GST-CD81 LEL capture of E1E2 from cell lysate, detection with anti-E2 serum R646)
Details: lysate concentration normalized for reactivity with AP33 and ALP98 mAbs in a GNA ELISA; mock signal subtracted; triplicate; parent: est. 100; read off a plot

Chain of UniProt P60033 (P60033 113-201): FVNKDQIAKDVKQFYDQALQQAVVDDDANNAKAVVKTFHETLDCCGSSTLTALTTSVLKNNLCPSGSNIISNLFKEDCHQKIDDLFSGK

In order of falling percent of parent:
1. HCV envelope glycoprotein E1, wild type (genotype 1a strain H77c) (from UniProt P27958) in341 (LFKHP inserted after P341)  100 % of WT
2. HCV envelope glycoprotein E2, wild type (genotype 1a strain H77c) (from UniProt P27958) in573 (CLNRG inserted after G573)  98 % of WT
3. HCV envelope glycoprotein E2, wild type (genotype 1a strain H77c) (from UniProt P27958) in734 (CLNTC inserted after C734)  96 % of WT
4. HCV envelope glycoprotein E1, wild type (genotype 1a strain H77c) (from UniProt P27958) in263 (CLNID inserted after D263)  93 % of WT
5. HCV envelope glycoprotein E1, wild type (genotype 1a strain H77c) (from UniProt P27958) in218 (VFKHD inserted after D218)  93 % of WT
6. HCV envelope glycoprotein E1, wild type (genotype 1a strain H77c) (from UniProt P27958) in324 (FKQMM inserted after M324)  88 % of WT
7. HCV envelope glycoprotein E2, wild type (genotype 1a strain H77c) (from UniProt P27958) in682 (LFKHL inserted after L682)  83 % of WT
8. HCV envelope glycoprotein E2, wild type (genotype 1a strain H77c) (from UniProt P27958) in587 (CLNIR inserted after R587)  83 % of WT
9. HCV envelope glycoprotein E2, wild type (genotype 1a strain H77c) (from UniProt P27958) in692 (LFKHL inserted after L692)  82 % of WT
10. HCV envelope glycoprotein E2, wild type (genotype 1a strain H77c) (from UniProt P27958) in732 (CLNIC inserted after C732)  77 % of WT
11. HCV envelope glycoprotein E2, wild type (genotype 1a strain H77c) (from UniProt P27958) in726 (FKHLL inserted after L726)  72 % of WT
12. HCV envelope glycoprotein E2, wild type (genotype 1a strain H77c) (from UniProt P27958) in413 (MFKQL inserted after L413)  72 % of WT
13. HCV envelope glycoprotein E1, wild type (genotype 1a strain H77c) (from UniProt P27958) in343 (CLNKA inserted after A343)  66 % of WT
14. HCV envelope glycoprotein E2, wild type (genotype 1a strain H77c) (from UniProt P27958) in540 (CLNIN inserted after N540)  59 % of WT
15. HCV envelope glycoprotein E2, wild type (genotype 1a strain H77c) (from UniProt P27958) in549 (CLNNW inserted after W549)  45 % of WT
16. HCV envelope glycoprotein E2, wild type (genotype 1a strain H77c) (from UniProt P27958) in611 (LFKHY inserted after Y611)  34 % of WT
17. HCV envelope glycoprotein E2, wild type (genotype 1a strain H77c) (from UniProt P27958) in630 (CLNIR inserted after R630)  33 % of WT
18. HCV envelope glycoprotein E2, wild type (genotype 1a strain H77c) (from UniProt P27958) in424 (CLNNS inserted after S424)  25 % of WT
19. HCV envelope glycoprotein E2, wild type (genotype 1a strain H77c) (from UniProt P27958) in614 (LFKHR inserted after R614)  25 % of WT
20. HCV envelope glycoprotein E2, wild type (genotype 1a strain H77c) (from UniProt P27958) in620 (CLNTC inserted after C620)  23 % of WT
21. HCV envelope glycoprotein E2, wild type (genotype 1a strain H77c) (from UniProt P27958) in422 (MFKHI inserted after I422)  22 % of WT
22. HCV envelope glycoprotein E2, wild type (genotype 1a strain H77c) (from UniProt P27958) in533 (CLNND inserted after D533)  19 % of WT
23. HCV envelope glycoprotein E2, wild type (genotype 1a strain H77c) (from UniProt P27958) in531 (MFKHA inserted after A531)  18 % of WT
